94 variants from the supplement of paper PMC10567573 can be followed below.

B1: PRPH (parent)
chain: DEIEFLKKLHEEELRDLQVSVESQ
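Also: lentivirally expressed fusions sorted by FACS into six bins by GFP to DsRed ratio, PSI derived from sequencing read proportions per bin multiplied by bin number.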

The variants in this series derive from B1. Description: protein stability index of a GFP-peptide fusion (GPS, HEK-293T) (PSI 1-6); higher = more stable. The settings on record: c terminus: a fixed tail appended.
DEIEFLKKLHSEELRDLQVSVESQ [E11S]: the protein stability index was found to be 4.52.
As for DEIEFLKKLHPEELRDLQVSVESQ [E11P], the protein stability index is 4.34.
On to DEIEFLKKLHTEELRDLQVSVESQ [E11T], for which the protein stability index worked out at 4.46.
The same measure for DEIEFLKKLHDEELRDLQVSVESQ [E11D]: 4.94.
Take DEIEFLKKLHAEELRDLQVSVESQ [E11A]: the protein stability index came out at 4.29.
The same measure for DEIEFLKKLHVEELRDLQVSVESQ [E11V]: 3.99.
The same measure for DEIEFLKKLHQEELRDLQVSVESQ [E11Q]: 4.08; for DEIEFLKKLHGEELRDLQVSVESQ [E11G]: 4.95.
With DEIEFLKKLHKEELRDLQVSVESQ [E11K], the protein stability index was determined as 4.92.
The same measure for DEIEFLKKLHEEELRDLQVPVESQ [S20P]: 4.96; for DEIEFLKKLHEEELRDLQVNVESQ [S20N]: 4.83; for DEIEFLKKLHEEELRDLQVYVESQ [S20Y]: 4.45.
As for DEIEFLKKLHEEELRDLQVFVESQ [S20F], the protein stability index came to 3.97.
The same measure for DEIEFLKKLHEEELRDLQVDVESQ [S20D]: 4.54.
The same measure for DEIEFLKKLHEEELRDLQVEVESQ [S20E]: 5.75.
On to DEIEFLKKLHEEELRDLQVWVESQ [S20W], for which the protein stability index turned out to be 4.45.
The same measure for DEIEFLKKLHEEELRDLQVKVESQ [S20K]: 4.75; for DEIEFLKKLHEEELRDLQVRVESQ [S20R]: 5.1.
Regarding DSIEFLKKLHEEELRDLQVSVESQ [E2S], the protein stability index is 3.65.
Under DRIEFLKKLHEEELRDLQVSVESQ [E2R] stands 4.39.
The same measure for DDIEFLKKLHEEELRDLQVSVESQ [E2D]: 5.01; for DMIEFLKKLHEEELRDLQVSVESQ [E2M]: 2.05; for DEIEFLKKLHEEELRDLQHSVESQ [V19H]: 5.27.
The same measure for DEIEFLKKLHEEELRDLQASVESQ [V19A]: 5.23; for DEIEFLKKLHEEELRDLQFSVESQ [V19F]: 4.39; for DEIEFLKKLHEEELRDLQCSVESQ [V19C]: 5.23.
On to DEIEFLKKLHEEELRDLQESVESQ [V19E], for which the protein stability index amounted to 5.
Under DEIEFLKKLHEEELRDLQVSVESC [Q24C] stands 3.37.
The same measure for DEIEFLKKLHEEELRDLQVSVESF [Q24F]: 3.91; for DEIEFLKKLHEEELRDLQVSVESN [Q24N]: 4.92; for DEIEFLKKLHEEELRDLQVSVESA [Q24A]: 4.57.
Under DEIEFLKKLHEEELRDLQVSVESG [Q24G] stands 4.48; under DEIEFLKKLHEEELRDLQVSVESP [Q24P], 3.96.
Consider DEIEFLKKLHEEELRDLQVSVESY [Q24Y], for which the protein stability index came to 3.64.
The same measure for DEIEFLKKLHEEELRDLQVSVESD [Q24D]: 4.46.
The same measure for DEIEFLKKLHEEELRDLQVSVESW [Q24W]: 3.85.
The same measure for DEIEFLKKLHEEELRDLQVSVESR [Q24R]: 4.22; for DEIEFLKKLHEEELRDLQVSVEGQ [S23G]: 5.13; for DEIEFLKKLHEEELRDLQVSVECQ [S23C]: 4.55.
DEIEFLKKLHEEELRDLQVSVEQQ [S23Q]: the protein stability index was found to be 4.11.
Under DEIEFLKKLHEEELRDLQVSVERQ [S23R] stands 4.62.
The same measure for DEIEFLKKLHEEELRDLQVSVENQ [S23N]: 5.04.
The same measure for DEIEFLKKLHEEELRDLQVSVEIQ [S23I]: 3.8.
For the variant DEIEFLKKHHEEELRDLQVSVESQ [L9H], the protein stability index came to 5.29.
Under DEIEFLKKYHEEELRDLQVSVESQ [L9Y] stands 4.44.
The same measure for DEIEFLKKMHEEELRDLQVSVESQ [L9M]: 4.82; for DEIEFLKKEHEEELRDLQVSVESQ [L9E]: 5.05.
The same measure for DEIEFLKKLFEEELRDLQVSVESQ [H10F]: 3.47.
As to DEIEFLKKLTEEELRDLQVSVESQ [H10T], the protein stability index amounted to 4.95.
Under DEIEFLKKLLEEELRDLQVSVESQ [H10L] stands 2.52.
The same measure for DEIEFLKKLDEEELRDLQVSVESQ [H10D]: 5.25; for DEIEFLKKLWEEELRDLQVSVESQ [H10W]: 3.54; for DEIEFLKKLYEEELRDLQVSVESQ [H10Y]: 4.18.
Under DEIEFLKKLNEEELRDLQVSVESQ [H10N] stands 4.16; under DEIEFLKKLGEEELRDLQVSVESQ [H10G], 4.64.
For DEIEFLRKLHEEELRDLQVSVESQ [K7R], the protein stability index is 4.59.
The same measure for DEIEFLFKLHEEELRDLQVSVESQ [K7F]: 2.11.
Under DEIEFLMKLHEEELRDLQVSVESQ [K7M] stands 3.07; under DEIEFLWKLHEEELRDLQVSVESQ [K7W], 1.96.
Under DEIEFLCKLHEEELRDLQVSVESQ [K7C] stands 2.85; under DEIEFLSKLHEEELRDLQVSVESQ [K7S], 3.85; under DEIEFLPKLHEEELRDLQVSVESQ [K7P], 5.04.
As to DEIEFLAKLHEEELRDLQVSVESQ [K7A], the protein stability index was 4.11.
For DEIEFLDKLHEEELRDLQVSVESQ [K7D], the protein stability index came to 5.06.
Take DEIEFLKKLHEEECRDLQVSVESQ [L14C]: the protein stability index stood at 5.18.
Under DEIEFLKKLHEEEVRDLQVSVESQ [L14V] stands 5.27.
Under DEIEFLKKLHEEEIRDLQVSVESQ [L14I] stands 4.66; under DEIEFLKKLHEEEQRDLQVSVESQ [L14Q], 4.84; under DEIEFLKKLHEEERRDLQVSVESQ [L14R], 5.22.
Under DEIEFLKKLHEEEPRDLQVSVESQ [L14P] stands 4.71; under DEIEFLKKLHEEESRDLQVSVESQ [L14S], 5.18; under DEIEFLKKLHEEENRDLQVSVESQ [L14N], 5.08.
DEIEFLKKLHEEEMRDLQVSVESQ [L14M]: the protein stability index came out at 5.02.
Under DEIEFLKKLHEEEGRDLQVSVESQ [L14G] stands 5.14; under DEIEFLKKLHEEEFRDLQVSVESQ [L14F], 4.24.
Consider DEIEFLKKLHECELRDLQVSVESQ [E12C], for which the protein stability index stood at 4.54.
Under DEIEFLKKLHEWELRDLQVSVESQ [E12W] stands 4.12; under DEIEFLKKLHELELRDLQVSVESQ [E12L], 4.04; under DEIEFLKKLHEDELRDLQVSVESQ [E12D], 4.41.
Under DEIEFLKKLHEQELRDLQVSVESQ [E12Q] stands 4.53; under DEIEFLKKLHESELRDLQVSVESQ [E12S], 4.67.
Under DEIEFLKKLHETELRDLQVSVESQ [E12T] stands 4.43.
Regarding DEIEFLKKLHEEELRMLQVSVESQ [D16M], the protein stability index is 3.9.
DEIEFLKKLHEEELRRLQVSVESQ [D16R]: the protein stability index was 3.96.
The same measure for DEIEFLKKLHEEELRELQVSVESQ [D16E]: 4.31; for DEIEFLKKLHEEELRVLQVSVESQ [D16V]: 4.34.
The same measure for DEIEFLKKLHEEELRKLQVSVESQ [D16K]: 4.94; for DEIEFLKKLHEEELRTLQVSVESQ [D16T]: 4.72; for DEIEFLKKLHEEELRHLQVSVESQ [D16H]: 4.67.
Under DEIEFLKKLHEEELRLLQVSVESQ [D16L] stands 2.97.
DEIEFLKKLHEEELRGLQVSVESQ [D16G]: the protein stability index amounted to 4.95.
Under DEIEFLKKLHEEELRSLQVSVESQ [D16S] stands 5.14; under DEIEFLKKLHEEELRALQVSVESQ [D16A], 4.6; under DEIEFLKKLHEEELRNLQVSVESQ [D16N], 4.2.
